The record followed here is US20220010021A1 (Sanofi, published 2022).

Assay [1] concerns the target cell surface receptor composed of FGFR1c and co-receptor beta-Klotho (KLB) (human, UniProt P11362 22-822; Q86Z14 1-1044). Description: cell-based or functional assay. On Mean E max, Luciferase reporter gene assay: reference of the scale not given here.
For a further assay, the target named is T1, human beta-Klotho (KLB) (human, UniProt Q86Z14 53-997).
T1 construct: Bought protein; also called human KLB; β-Klotho
T1 sequence (looked up): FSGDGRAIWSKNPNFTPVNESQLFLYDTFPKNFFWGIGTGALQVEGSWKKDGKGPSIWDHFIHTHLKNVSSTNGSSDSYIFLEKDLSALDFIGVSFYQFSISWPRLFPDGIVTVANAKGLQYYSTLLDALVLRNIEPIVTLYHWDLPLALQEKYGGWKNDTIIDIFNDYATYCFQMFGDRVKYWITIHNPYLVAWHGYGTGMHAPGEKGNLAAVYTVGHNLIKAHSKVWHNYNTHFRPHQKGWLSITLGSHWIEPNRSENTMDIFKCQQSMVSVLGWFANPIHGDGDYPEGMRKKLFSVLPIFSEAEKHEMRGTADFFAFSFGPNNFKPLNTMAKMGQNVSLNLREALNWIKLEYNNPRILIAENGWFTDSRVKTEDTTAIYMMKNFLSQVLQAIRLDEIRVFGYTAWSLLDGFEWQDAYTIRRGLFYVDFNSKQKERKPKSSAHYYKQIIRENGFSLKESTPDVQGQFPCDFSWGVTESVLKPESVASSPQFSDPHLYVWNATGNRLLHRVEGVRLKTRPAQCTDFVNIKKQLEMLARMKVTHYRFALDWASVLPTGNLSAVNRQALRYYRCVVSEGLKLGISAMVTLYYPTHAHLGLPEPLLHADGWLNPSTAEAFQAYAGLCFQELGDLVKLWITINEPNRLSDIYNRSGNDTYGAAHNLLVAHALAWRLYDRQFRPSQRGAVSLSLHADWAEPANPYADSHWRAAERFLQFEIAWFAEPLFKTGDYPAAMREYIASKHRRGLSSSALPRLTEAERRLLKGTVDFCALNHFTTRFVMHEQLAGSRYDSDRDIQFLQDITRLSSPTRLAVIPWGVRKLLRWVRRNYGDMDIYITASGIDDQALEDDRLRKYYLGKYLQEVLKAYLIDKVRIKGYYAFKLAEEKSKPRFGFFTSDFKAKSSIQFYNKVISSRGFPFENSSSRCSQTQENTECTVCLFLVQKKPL
Description: BLI off-rate screening (Octet), crude supernatant.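 Further: supernatants tested at 25 µg/mL, dissociation from biosensors recorded in D-PBS with 0.1% BSA over 1800 s.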 In general terms: In BLI a coated tip is dipped into the sample, and binding shifts an interference pattern.

As usually defined, the koff is the rate constant with which the complex falls apart. A lower koff goes with a long-lived complex.

Sequence of cell surface receptor composed of FGFR1c and co-receptor beta-Klotho (KLB) (P11362 22-822, chain 1 of 2): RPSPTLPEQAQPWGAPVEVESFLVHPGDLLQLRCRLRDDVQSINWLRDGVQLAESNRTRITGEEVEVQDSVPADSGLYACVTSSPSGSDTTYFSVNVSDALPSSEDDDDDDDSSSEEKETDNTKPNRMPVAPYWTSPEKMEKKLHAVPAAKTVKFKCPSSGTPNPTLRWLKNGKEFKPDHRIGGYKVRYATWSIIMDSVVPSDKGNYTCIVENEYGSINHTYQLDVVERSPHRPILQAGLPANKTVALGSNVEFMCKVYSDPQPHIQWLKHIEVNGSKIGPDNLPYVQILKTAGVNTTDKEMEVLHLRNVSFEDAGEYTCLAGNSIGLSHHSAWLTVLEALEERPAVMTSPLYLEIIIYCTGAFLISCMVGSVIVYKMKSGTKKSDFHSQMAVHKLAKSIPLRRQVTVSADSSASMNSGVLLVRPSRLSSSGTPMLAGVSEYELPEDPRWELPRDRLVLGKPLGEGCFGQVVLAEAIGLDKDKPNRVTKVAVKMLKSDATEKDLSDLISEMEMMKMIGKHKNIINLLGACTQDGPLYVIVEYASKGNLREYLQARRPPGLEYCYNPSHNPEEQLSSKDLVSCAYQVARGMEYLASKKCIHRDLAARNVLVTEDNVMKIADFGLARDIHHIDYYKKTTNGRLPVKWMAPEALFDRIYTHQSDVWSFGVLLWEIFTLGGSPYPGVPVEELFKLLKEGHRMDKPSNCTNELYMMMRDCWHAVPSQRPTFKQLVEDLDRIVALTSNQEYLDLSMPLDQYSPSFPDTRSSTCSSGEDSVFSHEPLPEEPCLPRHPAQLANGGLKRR
Sequence of cell surface receptor composed of FGFR1c and co-receptor beta-Klotho (KLB) (Q86Z14 whole entry, chain 2 of 2): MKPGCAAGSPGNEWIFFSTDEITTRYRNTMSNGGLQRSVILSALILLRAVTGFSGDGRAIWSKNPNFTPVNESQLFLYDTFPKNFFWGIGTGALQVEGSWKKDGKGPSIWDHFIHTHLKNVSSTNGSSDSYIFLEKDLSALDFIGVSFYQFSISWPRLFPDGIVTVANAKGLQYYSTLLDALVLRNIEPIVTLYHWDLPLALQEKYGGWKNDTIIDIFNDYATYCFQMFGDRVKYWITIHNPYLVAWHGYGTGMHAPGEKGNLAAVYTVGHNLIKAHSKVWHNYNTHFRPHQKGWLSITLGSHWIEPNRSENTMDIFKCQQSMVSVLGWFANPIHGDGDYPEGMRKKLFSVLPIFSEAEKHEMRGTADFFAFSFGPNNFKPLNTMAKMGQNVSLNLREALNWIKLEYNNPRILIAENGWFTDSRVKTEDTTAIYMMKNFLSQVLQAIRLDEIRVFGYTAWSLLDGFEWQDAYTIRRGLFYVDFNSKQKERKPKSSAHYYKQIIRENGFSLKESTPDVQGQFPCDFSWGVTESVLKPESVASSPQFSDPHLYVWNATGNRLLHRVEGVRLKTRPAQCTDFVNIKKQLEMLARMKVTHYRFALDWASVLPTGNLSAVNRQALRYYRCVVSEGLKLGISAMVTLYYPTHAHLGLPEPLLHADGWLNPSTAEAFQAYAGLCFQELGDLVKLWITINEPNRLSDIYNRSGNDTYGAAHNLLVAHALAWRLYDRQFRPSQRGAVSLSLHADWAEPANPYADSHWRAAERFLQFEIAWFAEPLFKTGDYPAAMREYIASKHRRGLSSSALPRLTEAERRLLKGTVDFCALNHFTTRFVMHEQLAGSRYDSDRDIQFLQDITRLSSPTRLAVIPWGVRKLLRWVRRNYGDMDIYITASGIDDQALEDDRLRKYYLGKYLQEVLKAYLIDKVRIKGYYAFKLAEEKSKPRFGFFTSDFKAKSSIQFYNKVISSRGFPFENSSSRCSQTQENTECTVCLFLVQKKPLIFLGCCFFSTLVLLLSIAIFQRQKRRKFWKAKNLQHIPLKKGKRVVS

B1: 16H7 light chain variant D50V (antibody, IgG4, V domains shown)
VH: not shown
VL: SYVLTQPPSVSVAPGQTARITCGGNNIGSESVHWYQQKPGQAPVLVVYDVSDRPSGIPERFSGSNSGNTATLTISRVEAGDEADYYCQVWDGNSDHVVFGGGTKLTVLG
notes: IgG4 backbone
For the molecule B1, in assay [1], the “Mean E max, Luciferase reporter gene assay” value (shortened to “Mean E max”) was found to be 105% and the “Mean EC50, Luciferase reporter gene assay” value (“Mean EC50” for short) amounted to 0.106 nM. For the same molecule, in the assay with human beta-Klotho (KLB), the off-rate (koff) is 2.2e-05 s⁻¹.

B2: 16H7 light chain variant H33Q (antibody, IgG4, V domains shown)
VH: not shown
VL: SYVLTQPPSVSVAPGQTARITCGGNNIGSESVQWYQQKPGQAPVLVVYDDSDRPSGIPERFSGSNSGNTATLTISRVEAGDEADYYCQVWDGNSDHVVFGGGTKLTVLG
notes: IgG4 backbone
B2: in assay [1], the “Mean E max” value stood at 101% and the “Mean EC50” value came to 0.131 nM. In the assay with human beta-Klotho (KLB), this molecule yielded a koff of 4.4e-05 s⁻¹.

B3: 16H7 light chain variant H33F (antibody, IgG4, V domains shown)
VH: not shown
VL: SYVLTQPPSVSVAPGQTARITCGGNNIGSESVFWYQQKPGQAPVLVVYDDSDRPSGIPERFSGSNSGNTATLTISRVEAGDEADYYCQVWDGNSDHVVFGGGTKLTVLG
notes: IgG4 backbone
Turning to B3, in assay [1], the “Mean E max” value was 113% and the “Mean EC50” value came to 0.122 nM. This molecule displayed a koff in the assay with human beta-Klotho (KLB) of 0.0001 s⁻¹.

B4: 16H7 light chain variant D50W (antibody, IgG4, V domains shown)
VH: not shown
VL: SYVLTQPPSVSVAPGQTARITCGGNNIGSESVHWYQQKPGQAPVLVVYDWSDRPSGIPERFSGSNSGNTATLTISRVEAGDEADYYCQVWDGNSDHVVFGGGTKLTVLG
notes: IgG4 backbone
As for B4, in assay [1], the “Mean E max” value was 108% and the “Mean EC50” value stood at 0.145 nM. Also, the koff with human beta-Klotho (KLB) is 0.00017 s⁻¹.

B5: 16H7 light chain variant D95I (antibody, IgG4, V domains shown)
VH: not shown
VL: SYVLTQPPSVSVAPGQTARITCGGNNIGSESVHWYQQKPGQAPVLVVYDDSDRPSGIPERFSGSNSGNTATLTISRVEAGDEADYYCQVWDGNSIHVVFGGGTKLTVLG
notes: IgG4 backbone
For B5, in assay [1], the “Mean E max” value was 4%. In addition, the koff with human beta-Klotho (KLB) was 0.00016 s⁻¹.

B6: 16H7 light chain variant H33C (antibody, IgG4, V domains shown)
VH: not shown
VL: SYVLTQPPSVSVAPGQTARITCGGNNIGSESVCWYQQKPGQAPVLVVYDDSDRPSGIPERFSGSNSGNTATLTISRVEAGDEADYYCQVWDGNSDHVVFGGGTKLTVLG
notes: IgG4 backbone
B6: in assay [1], the “Mean E max” value came out at 108% and the “Mean EC50” value was determined as 0.123 nM. Moreover, the off-rate constant (koff) with human beta-Klotho (KLB) came to 6.8e-05 s⁻¹.

B7: 16H7 light chain variant H33G (antibody, IgG4, V domains shown)
VH: not shown
VL: SYVLTQPPSVSVAPGQTARITCGGNNIGSESVGWYQQKPGQAPVLVVYDDSDRPSGIPERFSGSNSGNTATLTISRVEAGDEADYYCQVWDGNSDHVVFGGGTKLTVLG
notes: IgG4 backbone
For B7, in assay [1], the “Mean E max” value came to 102% and the “Mean EC50” value worked out at 0.12 nM. In addition, in the assay with human beta-Klotho (KLB), the koff came to 9.6e-05 s⁻¹.

B8: 16H7 light chain variant H33E (antibody, IgG4, V domains shown)
VH: not shown
VL: SYVLTQPPSVSVAPGQTARITCGGNNIGSESVEWYQQKPGQAPVLVVYDDSDRPSGIPERFSGSNSGNTATLTISRVEAGDEADYYCQVWDGNSDHVVFGGGTKLTVLG
notes: IgG4 backbone
For B8, in assay [1], the “Mean E max” value came out at 100% and the “Mean EC50” value was found to be 0.121 nM. The koff in the assay with human beta-Klotho (KLB) was found to be 3.6e-05 s⁻¹.

B9: 16H7 light chain variant D50Y (antibody, IgG4, V domains shown)
VH: not shown
VL: SYVLTQPPSVSVAPGQTARITCGGNNIGSESVHWYQQKPGQAPVLVVYDYSDRPSGIPERFSGSNSGNTATLTISRVEAGDEADYYCQVWDGNSDHVVFGGGTKLTVLG
notes: IgG4 backbone
For B9, in assay [1], the “Mean E max” value is 113% and the “Mean EC50” value turned out to be 0.157 nM. For the same molecule, the koff with human beta-Klotho (KLB) was found to be 0.00016 s⁻¹.

B10: 16H7 light chain variant H33A (antibody, IgG4, V domains shown)
VH: not shown
VL: SYVLTQPPSVSVAPGQTARITCGGNNIGSESVAWYQQKPGQAPVLVVYDDSDRPSGIPERFSGSNSGNTATLTISRVEAGDEADYYCQVWDGNSDHVVFGGGTKLTVLG
notes: IgG4 backbone
As to B10, in assay [1], the “Mean E max” value came to 96% and the “Mean EC50” value was 0.121 nM. This molecule also registered a koff in the assay with human beta-Klotho (KLB) of 0.00013 s⁻¹.

B11: 16H7 light chain variant H33D (antibody, IgG4, V domains shown)
VH: not shown
VL: SYVLTQPPSVSVAPGQTARITCGGNNIGSESVDWYQQKPGQAPVLVVYDDSDRPSGIPERFSGSNSGNTATLTISRVEAGDEADYYCQVWDGNSDHVVFGGGTKLTVLG
notes: IgG4 backbone
For B11, in assay [1], the “Mean E max” value worked out at 99% and the “Mean EC50” value came out at 0.166 nM. The off-rate (koff) with human beta-Klotho (KLB) amounted to 6.8e-05 s⁻¹.

B12: 16H7 light chain variant H33N (antibody, IgG4, V domains shown)
VH: not shown
VL: SYVLTQPPSVSVAPGQTARITCGGNNIGSESVNWYQQKPGQAPVLVVYDDSDRPSGIPERFSGSNSGNTATLTISRVEAGDEADYYCQVWDGNSDHVVFGGGTKLTVLG
notes: IgG4 backbone
Turning to B12, in assay [1], the “Mean E max” value is 113% and the “Mean EC50” value is 0.165 nM. Besides, the koff with human beta-Klotho (KLB) was found to be 0.00011 s⁻¹.

B13: 16H7 light chain variant D95M (antibody, IgG4, V domains shown)
VH: not shown
VL: SYVLTQPPSVSVAPGQTARITCGGNNIGSESVHWYQQKPGQAPVLVVYDDSDRPSGIPERFSGSNSGNTATLTISRVEAGDEADYYCQVWDGNSMHVVFGGGTKLTVLG
notes: IgG4 backbone
For the molecule B13, the “Mean E max” value in assay [1] was found to be 8%. Further, the koff in the assay with human beta-Klotho (KLB) turned out to be 1.4e-05 s⁻¹.

B14: 16H7 light chain variant H33I (antibody, IgG4, V domains shown)
VH: not shown
VL: SYVLTQPPSVSVAPGQTARITCGGNNIGSESVIWYQQKPGQAPVLVVYDDSDRPSGIPERFSGSNSGNTATLTISRVEAGDEADYYCQVWDGNSDHVVFGGGTKLTVLG
notes: IgG4 backbone
As for B14, in assay [1], the “Mean E max” value was 104% and the “Mean EC50” value was found to be 0.121 nM. In the assay with human beta-Klotho (KLB), this molecule yielded a koff of 9.7e-05 s⁻¹.

B15: 16H7 light chain variant H33V (antibody, IgG4, V domains shown)
VH: not shown
VL: SYVLTQPPSVSVAPGQTARITCGGNNIGSESVVWYQQKPGQAPVLVVYDDSDRPSGIPERFSGSNSGNTATLTISRVEAGDEADYYCQVWDGNSDHVVFGGGTKLTVLG
notes: IgG4 backbone
For the molecule B15, in assay [1], the “Mean E max” value is 104% and the “Mean EC50” value was found to be 0.147 nM. In the assay with human beta-Klotho (KLB), this molecule displayed a koff of 0.00018 s⁻¹.

B16: 16H7 light chain variant D95A (antibody, IgG4, V domains shown)
VH: not shown
VL: SYVLTQPPSVSVAPGQTARITCGGNNIGSESVHWYQQKPGQAPVLVVYDDSDRPSGIPERFSGSNSGNTATLTISRVEAGDEADYYCQVWDGNSAHVVFGGGTKLTVLG
notes: IgG4 backbone
As for B16, the “Mean E max” value in assay [1] came to 12%. The molecule further came in with a koff with human beta-Klotho (KLB) of 0.0002 s⁻¹.

B17: 16H7 light chain variant H33T (antibody, IgG4, V domains shown)
VH: not shown
VL: SYVLTQPPSVSVAPGQTARITCGGNNIGSESVTWYQQKPGQAPVLVVYDDSDRPSGIPERFSGSNSGNTATLTISRVEAGDEADYYCQVWDGNSDHVVFGGGTKLTVLG
notes: IgG4 backbone
B17: in assay [1], the “Mean E max” value was 99% and the “Mean EC50” value was 0.114 nM. This molecule registered a koff in the assay with human beta-Klotho (KLB) of 0.00014 s⁻¹.

B18: 16H7 light chain variant D95H (antibody, IgG4, V domains shown)
VH: not shown
VL: SYVLTQPPSVSVAPGQTARITCGGNNIGSESVHWYQQKPGQAPVLVVYDDSDRPSGIPERFSGSNSGNTATLTISRVEAGDEADYYCQVWDGNSHHVVFGGGTKLTVLG
notes: IgG4 backbone
For B18, in assay [1], the “Mean E max” value is 33% and the “Mean EC50” value came to 29.7 nM. The molecule further came in with a koff in the assay with human beta-Klotho (KLB) of 8.1e-06 s⁻¹.

B19: 16H7 light chain variant H33L (antibody, IgG4, V domains shown)
VH: not shown
VL: SYVLTQPPSVSVAPGQTARITCGGNNIGSESVLWYQQKPGQAPVLVVYDDSDRPSGIPERFSGSNSGNTATLTISRVEAGDEADYYCQVWDGNSDHVVFGGGTKLTVLG
notes: IgG4 backbone
Consider B19, for which, in assay [1], the “Mean E max” value was 114% and the “Mean EC50” value stood at 0.115 nM. This molecule gave a koff with human beta-Klotho (KLB) of 5.5e-05 s⁻¹.

B20: 16H7 light chain variant D95Y (antibody, IgG4, V domains shown)
VH: not shown
VL: SYVLTQPPSVSVAPGQTARITCGGNNIGSESVHWYQQKPGQAPVLVVYDDSDRPSGIPERFSGSNSGNTATLTISRVEAGDEADYYCQVWDGNSYHVVFGGGTKLTVLG
notes: IgG4 backbone
Take B20: the “Mean E max” value in assay [1] was found to be 4%. In the assay with human beta-Klotho (KLB), the koff was determined as 0.00013 s⁻¹.

B21: 16H7 light chain variant H33M (antibody, IgG4, V domains shown)
VH: not shown
VL: SYVLTQPPSVSVAPGQTARITCGGNNIGSESVMWYQQKPGQAPVLVVYDDSDRPSGIPERFSGSNSGNTATLTISRVEAGDEADYYCQVWDGNSDHVVFGGGTKLTVLG
notes: IgG4 backbone
For B21, in assay [1], the “Mean E max” value was 102% and the “Mean EC50” value stood at 0.107 nM. Moreover, the koff with human beta-Klotho (KLB) amounted to 5.2e-05 s⁻¹.

B22: 16H7 light chain variant H33S (antibody, IgG4, V domains shown)
VH: not shown
VL: SYVLTQPPSVSVAPGQTARITCGGNNIGSESVSWYQQKPGQAPVLVVYDDSDRPSGIPERFSGSNSGNTATLTISRVEAGDEADYYCQVWDGNSDHVVFGGGTKLTVLG
notes: IgG4 backbone
Consider B22, for which the “Mean E max” value in assay [1] came out at 103%. For the same molecule, the koff with human beta-Klotho (KLB) worked out at 4.6e-06 s⁻¹.
